Test results reported in doi:10.1101/2021.01.11.425814 (bioRxiv, 2021).

Target: p53 transactivation domain (TAD) (13-61) (human, UniProt P04637 13-61)
Assay: ITC

Sequence of p53 transactivation domain (TAD) (13-61) (P04637 13-61): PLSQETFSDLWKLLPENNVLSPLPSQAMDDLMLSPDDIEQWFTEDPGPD

dH: 12.3 kcal/mol
stoichiometry N: 1.04
B1: FOXO4 forkhead domain (FHD) (95-195) (domain or fragment)
chain: GSRRNAWGNQSYAELISQAIESAPEKRLTLAQIYEWMVRTVPYFKDKGDSNSSAGWKNSIRHNLSLHSKFIKVHNEATGKSSWWMLNPEGGKSGKAPRRRA
